Substitutions are numbered along the chain they refer to. Ends that are not written are not given here.
How the values were obtained:
[1] = biological target: T1, ClpA D1 pore-2 loop variant Δ295–297, hexamer (E. coli, UniProt P0ABH9 1-758, M169T | Δ295–297); experiment: FP; equimolar ClpA6 + ClpS titrated against N-degron peptide
T1 sequence: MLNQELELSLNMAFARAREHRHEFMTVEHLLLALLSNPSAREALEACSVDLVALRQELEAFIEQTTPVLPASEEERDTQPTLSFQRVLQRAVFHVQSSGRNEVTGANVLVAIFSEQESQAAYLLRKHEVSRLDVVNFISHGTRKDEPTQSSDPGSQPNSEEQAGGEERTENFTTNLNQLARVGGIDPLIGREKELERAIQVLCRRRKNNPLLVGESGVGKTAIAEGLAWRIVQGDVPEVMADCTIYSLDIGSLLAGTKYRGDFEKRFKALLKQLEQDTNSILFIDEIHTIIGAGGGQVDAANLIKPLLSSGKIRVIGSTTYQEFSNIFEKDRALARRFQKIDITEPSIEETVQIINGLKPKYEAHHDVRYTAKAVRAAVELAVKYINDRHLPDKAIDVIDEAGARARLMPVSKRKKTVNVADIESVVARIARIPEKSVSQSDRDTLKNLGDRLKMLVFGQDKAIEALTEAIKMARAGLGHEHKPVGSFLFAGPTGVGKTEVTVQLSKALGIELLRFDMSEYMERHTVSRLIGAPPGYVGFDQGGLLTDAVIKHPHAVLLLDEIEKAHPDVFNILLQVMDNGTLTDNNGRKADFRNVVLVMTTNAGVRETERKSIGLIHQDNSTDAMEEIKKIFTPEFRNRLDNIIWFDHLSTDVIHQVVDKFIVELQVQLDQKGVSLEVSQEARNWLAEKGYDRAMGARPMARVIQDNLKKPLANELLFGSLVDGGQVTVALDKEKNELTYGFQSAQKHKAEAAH

[2] = biological target: T2, ClpA D1 pore-2 loop variant QTQ (AAS 295–297 to QTQ), hexamer (E. coli, UniProt P0ABH9 1-758, M169T | 295–297 AAS to QTQ); experiment: as above
T2 sequence: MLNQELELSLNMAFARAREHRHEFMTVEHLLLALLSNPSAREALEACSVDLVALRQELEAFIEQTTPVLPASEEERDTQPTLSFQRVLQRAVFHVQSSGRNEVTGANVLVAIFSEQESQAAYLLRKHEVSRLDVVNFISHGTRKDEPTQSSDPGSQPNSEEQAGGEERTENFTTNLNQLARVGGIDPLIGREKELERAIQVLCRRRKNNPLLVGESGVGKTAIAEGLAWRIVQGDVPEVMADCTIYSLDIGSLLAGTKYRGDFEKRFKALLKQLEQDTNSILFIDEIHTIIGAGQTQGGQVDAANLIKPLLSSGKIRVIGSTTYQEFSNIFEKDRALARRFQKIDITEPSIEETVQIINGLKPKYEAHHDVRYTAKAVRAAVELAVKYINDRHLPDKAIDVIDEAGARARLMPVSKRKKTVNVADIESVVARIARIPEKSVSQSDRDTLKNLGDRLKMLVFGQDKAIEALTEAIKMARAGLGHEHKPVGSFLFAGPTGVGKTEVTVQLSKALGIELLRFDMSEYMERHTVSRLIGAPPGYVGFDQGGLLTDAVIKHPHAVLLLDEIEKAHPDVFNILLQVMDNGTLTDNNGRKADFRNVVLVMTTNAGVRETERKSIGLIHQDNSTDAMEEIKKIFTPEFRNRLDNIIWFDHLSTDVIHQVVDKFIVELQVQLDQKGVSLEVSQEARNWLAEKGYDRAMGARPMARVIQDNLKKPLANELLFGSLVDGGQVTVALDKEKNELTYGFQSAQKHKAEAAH

[3] = biological target: T3, ClpA D1 pore-2 loop variant KYR (AAS 295–297 to KYR), hexamer (E. coli, UniProt P0ABH9 1-758, M169T | 295–297 AAS to KYR); experiment: as above
T3 sequence: T2 sequence with Q295K, T296Y, Q297R

[4] = biological target: T4, ClpA (laboratory 'wild-type' ClpA carrying M169T), hexamer (E. coli, UniProt P0ABH9 1-758, M169T); experiment: as above
[5] = biological target: T5, ClpA D1 pore-2 loop variant GGG (AAS 295–297 to GGG), hexamer (E. coli, UniProt P0ABH9 1-758, M169T | 295–297 AAS to GGG); experiment: as above
T5 sequence: T2 sequence with Q295G, T296G, Q297G

[6] = biological target: T1, ClpA D1 pore-2 loop variant Δ295–297, …; experiment: FP
[7] = biological target: T2, ClpA D1 pore-2 loop variant QTQ (AAS …); experiment: FP
ClpS adaptor = biological target: T6, ClpS adaptor (E. coli, UniProt P0A8Q6 1-106); experiment: FP
T6 chain: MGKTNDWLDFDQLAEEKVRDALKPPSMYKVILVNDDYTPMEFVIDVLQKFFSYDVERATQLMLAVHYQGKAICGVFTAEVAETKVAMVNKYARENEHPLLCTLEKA

[8] = biological target: T3, ClpA D1 pore-2 loop variant KYR (AAS …); experiment: FP
[9] = biological target: T4, ClpA (laboratory 'wild-type' ClpA …); experiment: FP
[10] = biological target: T5, ClpA D1 pore-2 loop variant GGG (AAS …); experiment: FP

B1: ClpS•N-degron peptide complex (ClpS with LLYVQRDSKEC-fluorescein) (complex)
chain 1: T6 chain
chain 2: LLYVQRDSKEC
modifications: fluorescein (printed as LLYVQRDSKEC-fluorescein)
Kd [1]: 44 nM | Kd [2]: 65 nM | Kd [3]: 73 nM | Kd [4]: 56 nM | Kd [5]: 41 nM

LLYVQRDSKEC-fluorescein (not fully specified (residue 11); printed as LLYVQRDSKEC-fluorescein) [LLYVQRDSKEC-fluorescein N-degron synthetic peptide]
Kd [6]: 1200 nM | Kd [7]: 900 nM | Kd (ClpS adaptor): 2600 nM | Kd [8]: 550 nM | Kd [9]: 1200 nM | Kd [10]: 670 nM

— PMC9663308 (2022)
